{"source": "patent US20170037117A1", "about": "“COMPOSITIONS AND METHODS FOR TREATING METABOLIC DISORDERS” (Salk Institute for Biological Studies, priority 2014, published 2017)", "key": {"[1]": {"target": "human α-CGRP 1-37 (WT) (human)", "sequence (peptide, as listed by the source)": "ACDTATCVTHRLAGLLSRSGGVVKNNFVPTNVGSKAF", "experiment": "Biacore SPR 25 C, Fab over N-biotinylated peptide on SA chip"}, "[2]": {"target": "human α-CGRP F27A (25-37) (human)", "experiment": "Biacore SPR 25 C, Fab over peptide on SA chip; ratio to parent 25-37"}, "[3]": {"target": "human α-CGRP S34A (25-37) (human)", "experiment": "Biacore SPR 25 C, Fab over peptide on SA chip; ratio to parent 25-37"}, "[4]": {"target": "human α-CGRP N31A (25-37) (human)", "experiment": "Biacore SPR 25 C, Fab over peptide on SA chip; ratio to parent 25-37"}, "[5]": {"target": "human α-CGRP V28A (25-37) (human)", "experiment": "Biacore SPR 25 C, Fab over peptide on SA chip; ratio to parent 25-37"}, "[6]": {"target": "human α-CGRP G33A (25-37) (human)", "experiment": "Biacore SPR 25 C, Fab over peptide on SA chip; ratio to parent 25-37"}, "[7]": {"target": "human α-CGRP T30A (25-37) (human)", "experiment": "Biacore SPR 25 C, Fab over peptide on SA chip; ratio to parent 25-37"}, "[8]": {"target": "human α-CGRP V32A (25-37) (human)", "experiment": "Biacore SPR 25 C, Fab over peptide on SA chip; ratio to parent 25-37"}, "[9]": {"target": "human α-CGRP P29A (25-37) (human)", "experiment": "Biacore SPR 25 C, Fab over peptide on SA chip; ratio to parent 25-37"}, "[10]": {"target": "human α-CGRP K35A (19-37) (human)", "experiment": "Biacore SPR 25 C, Fab over peptide on SA chip; ratio to parent 19-37"}, "[11]": {"target": "human α-CGRP fragment 19-37 (human)", "experiment": "Biacore SPR 25 C, Fab over N-biotinylated peptide on SA chip; mean ± SD of two measurements on different chips"}, "[12]": {"target": "human α-CGRP fragment 25-37 (human)", "experiment": "Biacore SPR 25 C, Fab over N-biotinylated peptide on SA chip; mean ± SD of two measurements on different chips"}, "[13]": {"target": "human α-CGRP 1-37 (WT) (human)", "experiment": "Biacore, 37 C, Fab over biotin-CGRP on SA chip"}, "rat α-CGRP (1-37) (rat)": {"target": "rat α-CGRP (1-37) (rat)", "sequence (peptide, as listed by the source)": "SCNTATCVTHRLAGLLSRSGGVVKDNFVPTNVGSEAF", "experiment": "Biacore, 37 C, Fab over biotin-CGRP on SA chip"}, "[14]": {"target": "human α-CGRP fragment 25-37 (human)", "experiment": "Biacore, 25 C, Fab over biotin-fragment on SA chip"}, "[15]": {"target": "human α-CGRP 1-37 (WT) (human)", "experiment": "Biacore, 25 C, Fab over biotin-CGRP on SA chip"}}}
{"substance": "anti-CGRP monoclonal antibody 4901, Fab fragment", "values": [{"measurement": "Kd", "setting": "[1]", "value": 0.0605, "unit": "µM"}, {"measurement": "KD (mutant/parent)", "setting": "[2]", "value": 0.8}, {"measurement": "KD (mutant/parent)", "setting": "[3]", "value": 0.8}, {"measurement": "KD (mutant/parent)", "setting": "[4]", "value": 0.3}, {"measurement": "KD (mutant/parent)", "setting": "[5]", "value": 0.8}, {"measurement": "KD (mutant/parent)", "setting": "[6]", "value": 1.3}, {"measurement": "KD (mutant/parent)", "setting": "[7]", "value": 0.2}, {"measurement": "KD (mutant/parent)", "setting": "[8]", "value": 0.9}, {"measurement": "KD (mutant/parent)", "setting": "[9]", "value": 0.2}, {"measurement": "KD (mutant/parent)", "setting": "[10]", "value": 0.3}, {"measurement": "Kd", "setting": "[11]", "value": 0.052, "unit": "µM"}, {"measurement": "Kd", "setting": "[12]", "value": 0.296, "unit": "µM"}, {"measurement": "Kd", "setting": "[13]", "value": 0.139, "unit": "µM"}, {"measurement": "Kd", "setting": "rat α-CGRP (1-37) (rat)", "value": 0.0034, "unit": "µM"}, {"measurement": "fold lower affinity than to full length human α-CGRP", "setting": "[14]", "value": 6, "unit": "fold"}, {"measurement": "Kd", "setting": "[15]", "value": 0.061, "unit": "µM"}]}
{"substance": "murine anti-CGRP monoclonal antibody 7E9, Fab fragment", "values": [{"measurement": "KD (mutant/parent)", "setting": "[2]", "value": 1}, {"measurement": "KD (mutant/parent)", "setting": "[5]", "value": 1}]}
